Target: T1, RBD-501Y.V2 (SARS-CoV-2, B.1.351 (501Y.V2) lineage …, K417N | E484K | N501Y)
T1 construct: also called K417N/E484K/N501Y ternary mutation; B.1.351 lineage RBD
Assay: SPR
Settings: both partners purified

Binder | fold reduction of binding affinity against RBD
BD-623 (antibody, V domains shown) VH: EVQLVESGGGLVQPGGSLRLSCAASGFTVSSNYMSWVRQAPGKGLEWVSIIYSGGSTYYADSVKGRFTISRDNSKNTLYLQMNSLRAEDTAVYYCARDYAGRVWGQGTLVTVSS VL: QSALTQPASVSGSPGQSITISCTGTSSDVGSYNLVSWYQQRPGKAPKLILYEVTKRPSGVSNRFSGSKSGNTASLAISGLQAEDEADYYCCSYAGSSTWVFGGGTKLTVL | > 3 fold
BD-503 (antibody, V domains shown, also called BD-503 NAb) VH: EVQLVESGGGLIQPGGSLRLSCAASGLIVSSNYMSWVRQAPGKGLEWVSVLYAGGSTDYAGSVKGRFTISRDNSKNTLYLQMNSLRAEDTAVYYCARDAAVYGIDVWGQGTTVTVSS VL: not shown | > 3 fold
BD-604 (antibody, V domains shown) VH: EVQLVESGGGLIQPGGSLRLSCAASGIIVSSNYMTWVRQAPGKGLEWVSVIYSGGSTFYADSVKGRFTISRDNSKNTLYLQMSSLRAEDTAVYYCARDLGPYGMDVWGQGTTVTVSS VL: DIQLTQSPSFLSASVGDRVTITCRASQGISSDLAWYQQKPGKAPNLLIYAASTLQSGVPSRFSGSGSGTEFTLTISSLQPEDFATYYCQQLNSDLYTFGQGTKLEIK | 60 fold
BD-515 (antibody, V domains shown) VH: EVQLVESGGGLVQPGGSLRLSCAASEFIVSRNYMSWVRQAPGKGLEWVSVIYSGGSTFYADSVKGRFTISRDNSKNTLYLQMNSLRAEDTGVYYCARDRGLVSDYWGQGTLVTVSS VL: DIQMTQSPSSLSASVGDRVTITCQASQDINKYLNWYQQKPGKAPKLLIFDASHLETGVPSRFSASGSGTDFTFTISSLQPEDIATYYCHQYDNLPRTFGQGTRLEIK | > 3 fold

From publication PMC8413711, “Structure-based analyses of neutralization antibodies interacting with naturally occurring SARS-CoV-2 RBD variants” (Cell Research, 2021)
